Data as given in paper PMC6545562, “Slx5/Slx8‐dependent ubiquitin hotspots on chromatin contribute to stress tolerance” (The EMBO Journal, 2019).

Target: T1, 6His-Slx5, recombinant (S. cerevisiae, UniProt P32828 1-619)
T1 construct: Slx5, S. cerevisiae; Host and purification are in the Appendix Supplementary Methods; source: recombinant
T1 sequence (looked up): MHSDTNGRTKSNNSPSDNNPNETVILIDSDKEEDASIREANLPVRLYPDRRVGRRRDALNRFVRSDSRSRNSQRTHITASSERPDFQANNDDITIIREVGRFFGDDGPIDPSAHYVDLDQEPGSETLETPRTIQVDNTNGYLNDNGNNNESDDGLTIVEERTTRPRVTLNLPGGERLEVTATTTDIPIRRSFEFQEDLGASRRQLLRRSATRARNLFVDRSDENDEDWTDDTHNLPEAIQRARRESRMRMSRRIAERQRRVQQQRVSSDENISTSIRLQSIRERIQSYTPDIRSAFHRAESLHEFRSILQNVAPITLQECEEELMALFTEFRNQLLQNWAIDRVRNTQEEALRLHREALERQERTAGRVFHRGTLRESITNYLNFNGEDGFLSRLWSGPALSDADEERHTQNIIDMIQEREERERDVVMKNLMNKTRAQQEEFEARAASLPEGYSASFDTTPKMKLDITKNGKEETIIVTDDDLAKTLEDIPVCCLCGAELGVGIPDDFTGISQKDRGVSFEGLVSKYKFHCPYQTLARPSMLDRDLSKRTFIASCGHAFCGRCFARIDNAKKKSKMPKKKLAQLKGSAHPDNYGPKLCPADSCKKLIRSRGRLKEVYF
Experiment: pull-down; GST pull-down: recombinant purified GST or GST-Euc1 used to co-precipitate recombinant 6His-Slx5
Settings: both partners purified

binding result: binds
B1: GST-Euc1, recombinant (natural protein, S. cerevisiae, UniProt Q04461 1-462, looked up)
chain: MPAREYNYVEGFGGYGSLDDDDSDRDSERRNHDLGQRTITTSPTGVSRHAALNRYMIPGRINPLFRPTDAAQPPIVSTSTSASATEPTNRIGPGRIKETPETNFNAFLIAQLTRMEEQNANLKEEISLMKKEQELFFLENQKKLEKGFKDINKYVEDVSAMKEVFKEVVGIMTGERIRFIDHTGENVTPQEAARVGNPSTSTQAHQSQSRSTNWQEYSMHASILAGDPRIKPEPGLSDFENGEYDGNESDENATTRNLPLNNPDSVSNADDSNNQLDGTGNENDIRNRRGCVGTSYKLNRAIQNVTDAAREYFEGLPGQPSVLSLERRYGSTWRRSAKERTLFTKRMTIIKRIIDIKDDPSKYGLSLPENKISRNQAIKVVENIRLGNNTFKGHHCRLSMSQLYEYFSKKMDKLEDYSLTLKRRGKPRRIFLLEEREARLSLQQPHSIPNSSTGTPEHDQDT
notes: Euc1 (Ymr111c), S. cerevisiae; Host and purification are in the Appendix Supplementary Methods; also called recombinant, non‐SUMOylated Euc1; source: recombinant, purified
